B1: FIXa-K247N/N249S/R318Y/T343R/R403E (protein)
chain 1: not shown
chain 2: not shown
B2: FIXa-R318Y/R338E/T343R/R403E/E410N (protein)
chain 1: not shown
chain 2: not shown
B3: FIXa-Y155F/K247N/N249S/R318Y/T343R/R403E/E410N (protein)
chain 1: not shown
chain 2: not shown
B4: FIXa-R318Y/R338E/Y345A/R403E/E410N (protein)
chain 1: not shown
chain 2: not shown
B5: FIXa-K247N/N249S/R318Y/T343R/R403E/E410N (protein)
chain 1: not shown
chain 2: not shown
B6: FIXa-K247N/N249S/R318Y/R338E/T343R/E410N (protein)
chain 1: not shown
chain 2: not shown
B7: FIXa-D104N/K106S/R318Y/R338E/T343R/R403E/E410N (protein)
chain 1: not shown
chain 2: not shown
B8: FIXa-R318Y/R338E/T343R/N346Y/R403E/E410N (protein)
chain 1: not shown
chain 2: not shown
B9: FIXa-R318Y/R338E/T343R/N346D/R403E/E410N (protein)
chain 1: not shown
chain 2: not shown
B10: FIXa-R318Y/R338E/N346Y/R403E/E410N (protein)
chain 1: not shown
chain 2: not shown
B11: FIXa-Y155F/K247N/N249S/R318Y/T343R/R403E (protein)
chain 1: not shown
chain 2: not shown
B12: FIXa-Y155F/K247N/N249S/R338E/E410N (protein)
chain 1: not shown
chain 2: not shown
B13: FIXa-Y155F/R318Y/R338E/T343R/R403E/E410N (protein)
chain 1: not shown
chain 2: not shown

Biological target: Factor X (FX), P00742
Sequence (P00742 whole entry, looked up): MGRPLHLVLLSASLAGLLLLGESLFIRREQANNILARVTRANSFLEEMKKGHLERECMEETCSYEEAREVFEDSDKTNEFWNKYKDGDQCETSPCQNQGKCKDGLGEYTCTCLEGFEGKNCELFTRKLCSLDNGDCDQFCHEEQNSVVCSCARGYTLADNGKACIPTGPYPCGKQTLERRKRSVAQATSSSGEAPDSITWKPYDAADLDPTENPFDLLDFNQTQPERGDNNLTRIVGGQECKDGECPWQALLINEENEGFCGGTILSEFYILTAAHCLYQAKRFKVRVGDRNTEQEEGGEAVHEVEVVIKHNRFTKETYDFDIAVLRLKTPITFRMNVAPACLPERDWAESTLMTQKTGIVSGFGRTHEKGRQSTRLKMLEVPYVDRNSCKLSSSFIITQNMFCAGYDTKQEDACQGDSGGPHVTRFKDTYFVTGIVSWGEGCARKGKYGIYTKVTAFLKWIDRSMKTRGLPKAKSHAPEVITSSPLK

Protein	kcat	% of WT kcat/KM (against Catalyst Biosciences WT FIXa), FX activation in the Xase complex	KM	KM (nM) for activation of FX by FIXa in the Xase complex (FVIIIa, PC/PS vesicles, Ca2+), fluorogenic Spectrafluor FXa assay	kcat/KM for FX activation by FIXa in the Xase complex (FVIIIa, PC/PS vesicles, Ca2+), indirect fluorogenic Spectrafluor FXa assay
B1	3.7 s⁻¹	–	–	–	–
B2	9.7 s⁻¹	1217%	24.7 nM	22.3 nM	5.4e+08 M⁻¹ s⁻¹
B3	9 s⁻¹	–	–	–	–
B4	1.4 s⁻¹	–	18.8 nM	–	–
B5	9.5 s⁻¹	–	–	–	–
B6	8.8 s⁻¹	–	–	–	–
B7	5.7 s⁻¹	–	26.6 nM	–	–
B8	4.6 s⁻¹	–	15.8 nM	–	–
B9	5.4 s⁻¹	–	67 nM	–	–
B10	3.4 s⁻¹	–	28.1 nM	–	–
B11	7.5 s⁻¹	–	–	–	–
B12	7.3 s⁻¹	–	–	–	–
B13	7.8 s⁻¹	–	27.2 nM	–	–

Biological target: Factor X, P00742
Sequence (P00742 whole entry, looked up): as above

Protein	KM	kcat/KM
B1	105 nM	–
B2	–	4.2e+08 M⁻¹ s⁻¹
B3	60.6 nM	–
B4	–	8.3e+07 M⁻¹ s⁻¹
B5	80.5 nM	–
B6	32.8 nM	–
B7	–	2.2e+08 M⁻¹ s⁻¹
B8	–	3.1e+08 M⁻¹ s⁻¹
B9	–	8.2e+07 M⁻¹ s⁻¹
B10	–	1.2e+08 M⁻¹ s⁻¹
B11	60.5 nM	–
B12	17.7 nM	–
B13	–	3e+08 M⁻¹ s⁻¹

Reference: patent publication US11491212
